# B1: mAb16 (hybridoma 1E9D9B6) (antibody, V domains shown)
# VH: QVQLQQSGAELVKPGASVKLSCKASGYTFTSYYMYWVKQRPGQGLEWIGEINPSNGGTNFNEKFKSKATLTVDKSSSTAYMQLSSLTSEDSAVYYCTRGGYYPFDYWGQGTTLTVSS
# VL: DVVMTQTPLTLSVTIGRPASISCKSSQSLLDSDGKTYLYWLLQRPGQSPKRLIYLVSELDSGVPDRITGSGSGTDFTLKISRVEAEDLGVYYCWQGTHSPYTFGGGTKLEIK
# notes: Murine monoclonal antibody
# B2: mAb3 (hybridoma 6B5B11C10) (antibody, V domains shown)
# VH: EVQLQQSGTVLARPGASVKMSCKASGYIFTSYWVHWVKQRPGQGLEWIGGFYPGNSDSRYNQKFKGKATLTAVTSASTAYMDLSSLTNEDSAVYFCTRRDSPQYWGQGTTLTVSS
# VL: DVLMTQTPLSLPVSLGDQASISCRSSQSIVHSNGNTYLEWYLQKPGQSPKLLIYKVSNRFSGVPDRFSGSGSGTDFTLKISRLEAEDLGVYYCFQGSHVPFTFGGGTKLEIK
# notes: Murine monoclonal antibody
# B3: mAb4 (hybridoma 20D2C3G2) (antibody, V domains shown)
# VH: QVQLQQSGAELMKPGASVKISCKATGYTFSSSWIEWLKQRPGHGLEWIGEFLPGSGSTDYNEKFKGKATFTADTSSDTAYMLLSSLTSEDSAVYYCATDGNYDWFAYWGQGTLVTVSA
# VL: DLVMTQTPLSLPVSLGDQASISCRSSQSLVHSSGVTYLHWYLQKPGQSPKLLIYKVSNRFSGVPDRFSGSGSGTDFTLKISRVEAEDLGVYFCSQSTHVPPTFGSGTKLEIK
# notes: Murine monoclonal antibody
# B4: mAb13 (hybridoma 2C6C3C7) (antibody, V domains shown)
# VH: EVQLVESGGGLVQPGGSLKLSCAASGFIFSSYGMSWVRQSPDRRLELVASINTFGDRTYYPDSVKGRFTISRDNAKNTLYLQMTSLKSEDTAIYYCARGTGTYWGQGTTLTVSS
# VL: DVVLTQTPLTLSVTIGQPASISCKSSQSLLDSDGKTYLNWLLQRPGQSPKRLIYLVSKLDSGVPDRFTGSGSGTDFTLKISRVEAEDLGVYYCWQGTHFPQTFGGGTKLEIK
# notes: Murine monoclonal antibody
# B5: mAb19 (hybridoma 1B3B4F11) (antibody, V domains shown)
# VH: DVQLQESGPGLVKPSQSLSLTCTVTGYSITSDYAWNWIRQFPGNKLEWMGYISFSGYTSYNPSLKSRISVTRDTSRNQFFLQLTSVTTEDTATYYCAREVNYGDSYHFDYWGQGTIVTVSS
# VL: QLALTQSSSASFSLGASAKLTCTLSSQHRTYTIEWYQQQSLKPPKYVMEVKKDGSHSTGHGIPDRFSGSSSGADRYLSISNIQPEDEAIYICGVGDAIKGQSVFVFGGGTKVTVL
# notes: Murine monoclonal antibody
# Biological target: T1, human progastrin (full length) (human)
# T1 construct: also called hPG; PG
# T1 chain: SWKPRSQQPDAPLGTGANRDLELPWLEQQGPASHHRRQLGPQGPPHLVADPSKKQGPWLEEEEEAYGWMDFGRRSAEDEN
# Experiment: epitope mapping (no details given)
row,Binder,binding result
1,B1,binds
2,B2,binds
3,B3,binds
4,B4,binds
5,B5,binds

# — patent US20200103410A1 (ECS PROGASTRIN, published 2020)
